# B1: Hu89C10H8-7 (antibody, V domains shown)
# VH: EVQLVESGGGLVKPGGSLRLSCAASGFTFSNYWMTWIRQAPGKGLEWVASITNTGSSTFYPDSVKGRFTISRDNAKNSLYLQMNSLRAEDTAVYYCTRDTTIAPFDYWGQGTMVTVSS
# VL: DIQMTQSPSSLSASVGDRVTITCKASQNLNEYLNWYQQKPGKAPKRLIYKTNTLQAGIPSRFSGSGSGTDYTLTISSLQPEDFATYYCSQYNSGNTFGQGTKLEIK
# notes: humanized
# B2: Hu89C10H8-11 (antibody, V domains shown)
# VH: EVQLVESGGGLVKPGGSLRLSCAASGFTFSNYWMTWIRQAPGKGLEWVASITNTGSSTFYPDSVKGRFTISRDNAKNSLYLQMNSLRAEDTAVYYCTRDTTIAPFDYWGQGTMVTVSS
# VL: DIQMTQSPSSLSASVGDRVTITCKASQNLNEYLNWYQQKPGKAPKRLIYKTNTLQAGIPSRFSGSGSGIDYTLTISSLQPEDFATYYCSQYNSGNTFGQGTKLEIK
# notes: humanized
# B3: Hu47C6A3-2 (antibody, V domains shown)
# VH: QVQLQESGPGLVKPSETLSLTCTVSGYSITSDYAWNWIRQPPGKGLEWIGYIIYSGSTSYNPSLKSRVTISRDTSKNQFSLKLSSVTAADTAVYYCARSTMIATNWFAYWGQGTLVTVSS
# VL: DIQMTQSPSSLSASVGDRVTITCKASQDVSLAVAWYQQKPGKAPKLLIYWASTRHTGVPSRFSGSGSGTDFTLTISSLQPEDFATYYCQQHYITPWTFGGGTKVEIK
# notes: humanized
# B4: Hu47C6A3-3 (antibody, V domains shown)
# VH: QVQLQESGPGLVKPSETLSLTCTVSGYSITSDYAWNWIRQPPGKGLEWMGYIIYSGSTSYNPSLKSRITISRDTSKNQFSLKLSSVTAADTAVYYCARSTMIATNWFAYWGQGTLVTVSS
# VL: DIQMTQSPSSLSASVGDRVTITCKASQDVSLAVAWYQQKPGKAPKLLIYWASTRHTGVPSRFSGSGSGTDFTLTISSLQPEDFATYYCQQHYITPWTFGGGTKVEIK
# notes: humanized
# B5: Hu47C6A3-1 (antibody, V domains shown)
# VH: QVQLQESGPGLVKPSETLSLTCTVSGYSITSDYAWNWIRQPPGKGLEWIGYIIYSGSTSYNPSLKSRVTISVDTSKNQFSLKLSSVTAADTAVYYCARSTMIATNWFAYWGQGTLVTVSS
# VL: DIQMTQSPSSLSASVGDRVTITCKASQDVSLAVAWYQQKPGKAPKLLIYWASTRHTGVPSRFSGSGSGTDFTLTISSLQPEDFATYYCQQHYITPWTFGGGTKVEIK
# notes: humanized
# B6: Hu67F3G7-3 (antibody, V domains shown)
# VH: EVQLVQSGAEVKKPGASVKVSCKASGYIFTDFWVSWVRQAPGQGLEWIGEIYPNSGVSRYNEKFKGRVTMTVDKSISTAYMELSRLRSDDTAVYYCTKYFGYTYWFGYWGQGTLVTVSS
# VL: DIQMTQSPSSLSASVGDRVTITCRASKSVSTYMHWYQQKPGKAPKLLIYSASHLESGVPSRFSGSGSGTDFTLTISSLQPEDFATYYCQQSNELPVTFGGGTKVEIK
# notes: humanized
# Columns and labels:
# [1] = biological target: PD-L1 on PD-L1 target cells (Homo sapiens (Human)) (UniProt Q9NZQ7); assay: cell-based or functional assay
# cynomolgus PD-L1 protein = cynomolgus PD-L1 protein (cynomolgus, UniProt G7PSE7 19-238); assay: ELISA, coated cynomolgus PD-L1
# Protocol: (§1) ELISA testing was carried out to evaluate the binding of chimeric antibodies to human, mouse, rat, and cynomolgus PD-L1, respectively.
# (§2) Briefly, microtiter plates were coated with human, mouse, rat and cynomolgus PD-L1 proteins at 0.5 μg/ml in PBS, 100 μl/well at 4° C. overnight, then blocked with 150 μl/well of 1% BSA. Three-fold dilutions of chimeric antibodies starting from 10 μg/ml were added to each well and incubated for 1 hour at 37° C. The plates were washed with PBS/Tween and then incubate with mouse-anti-human IgG Fab antibody conjugated with Horse Radish Peroxidase (HRP) for 30 mins at 37° C. After washing, the plates were developed with TMB substrate and analyzed by spectrophotometer at OD 450 nm.
# [2] = biological target: human TGF-β protein (human) (UniProt P01137); assay: ELISA, coated human TGF-β
# [3] = biological target: T1, human PD-L1-his tag protein (human, UniProt Q9NZQ7 19-238); assay: ELISA, coated human PD-L1-His
# T1 construct: also called human PD-L1-His protein; recombinant PD-L1 protein; not shown: his tag
# [4] = biological target: mouse TGF-β protein (mouse); assay: ELISA, coated mouse TGF-β
# mouse PD-L1 protein = mouse PD-L1 protein (mouse, UniProt Q9EP73 19-239); assay: ELISA, coated mouse PD-L1
# Protocol: as §1, §2
# rat TGF-β protein (rat) = assay: ELISA, coated rat TGF-β
# rat PD-L1 protein = rat PD-L1 protein (rat, UniProt D4AE25 19-239); assay: ELISA, coated rat PD-L1
# Protocol: as §1, §2
# [5] = biological target: cynomolgus TGF-β protein (cynomolgus); assay: ELISA, coated cynomolgus TGF-β
# [6] = biological target: human TGF-β protein (human) (UniProt P01137); assay: cell-based or functional assay
# [7] = biological target: T1, human PD-L1-his tag protein; assay: SPR (Biacore T200), mAb captured on Protein A chip, PD-L1-his injected
# Protocol: The binding of the humanized antibodies to recombinant PD-L1 protein (human PD-L1-his tag) was tested by Biacore using a capture method. […] A serial dilution of human PD-L1-his tag protein was injected over captured antibody for 2 mins at a flow rate of 30 μl/min. The antigen was allowed to dissociate for 1500 s. All the experiment were carried out on a Biacore T200.
# [8] = biological target: T1, human PD-L1-his tag protein; assay: SPR (Biacore), affinity ranking, PDL1-His
# human PD-L1-Fc protein [9] = biological target: T2, human PD-L1-Fc protein (human, UniProt Q9NZQ7 19-238); assay: receptor blocking ELISA: coated human PD-L1-Fc, blocked ligand biotin-labeled human PD-1-Fc (Bio-PD1), OD 450nm; upper right panel
# T2 construct: coating antigen of the ELISAs; also called rhPD-L1-Fc; not shown: Fc
# Protocol: (§3) Briefly, microtiter plates were coated with human PD-L1-Fc protein at 0.5 μg/ml in PBS, 100 μl/well at 4° C. overnight, then blocked with 150 μl/well of 1% BSA at 37° C. for 2 hours. […] The plates were washed with PBS/Tween and then incubated with Streptavidin-HRP for 10 mins at 37° C. After washing, the plates were developed with TMB substrate and analyzed by spectrophotometer at OD 450 nm.
# human PD-L1-Fc protein [10] = biological target: T2, human PD-L1-Fc protein; assay: ELISA, antibody titrated on coated human PD-L1-Fc, OD 450nm; upper right panel
# Protocol: as §2, with “To evaluate antigen binding activity, the humanized antibodies were subjected to ELISA test. Briefly,” for “Briefly,”, “with human PD-L1-Fc protein” for “with human, mouse, rat and cynomolgus PD-L1 proteins”, “with 200” for “with 150”, “of humanized” for “of chimeric”, “then incubated” for “then incubate”, “for 1 hour” for “for 30 mins”
# human PD-L1-Fc protein [11] = biological target: T2, human PD-L1-Fc protein; assay: receptor blocking ELISA: coated human PD-L1-Fc, blocked ligand biotin-labeled human CD80-Fc (Bio-CD80), OD 450nm; upper right panel
# Protocol: as §3
# [12] = biological target: T3, human PD-L1 over-expressed on CHOK1 cells (human, UniProt Q9NZQ7 19-290); assay: flow cytometry (MFI) on PDL1-CHOK1 cells; lower right panel
# T3 construct: whole, on cells; also called PDL1-CHOK1 cells
# Protocol: (§4) To evaluate the antigen binding property, the humanized antibodies were analyzed for their binding to PD-L1 overexpressed on mammalian cells by FACS. Briefly, PDL1-CHOK1 cells were firstly incubated with 3-fold serious diluted humanized antibodies starting at 15 μg/ml at 4° C. for 40 mins. After washed by PBS, the Alexa Fluor® 647 AffiniPure Goat Anti-Human IgG (H+L) antibody was added to each well and incubated at 4° C. for 30 mins. The MFI of Alexa Fluor® 647 was evaluated by FACSCanto.
# human PD-L1-Fc protein [13] = biological target: T2, human PD-L1-Fc protein; assay: receptor blocking ELISA: coated human PD-L1-Fc, blocked ligand biotin-labeled human PD-1-Fc (Bio-PD1), OD 450nm; lower left panel
# Protocol: as §3
# human PD-L1-Fc protein [14] = biological target: T2, human PD-L1-Fc protein; assay: receptor blocking ELISA: coated human PD-L1-Fc, blocked ligand biotin-labeled human CD80-Fc (Bio-CD80), OD 450nm; lower left panel
# Protocol: as §3
# [15] = biological target: T3, human PD-L1 over-expressed on CHOK1 …; assay: flow cytometry (MFI) on PDL1-CHOK1 cells; upper left panel
# Protocol: as §4
# human PD-L1-Fc protein [16] = biological target: T2, human PD-L1-Fc protein; assay: ELISA, antibody titrated on coated human PD-L1-Fc, OD 450nm; lower left panel
# Protocol: as §2, with “To evaluate antigen binding activity, the humanized antibodies were subjected to ELISA test. Briefly,” for “Briefly,”, “with human PD-L1-Fc protein” for “with human, mouse, rat and cynomolgus PD-L1 proteins”, “with 200” for “with 150”, “of humanized” for “of chimeric”, “then incubated” for “then incubate”, “for 1 hour” for “for 30 mins”
# human PD-L1-Fc protein [17] = biological target: T2, human PD-L1-Fc protein; assay: receptor blocking ELISA: coated human PD-L1-Fc, blocked ligand biotin-labeled human CD80-Fc (Bio-CD80), OD 450nm; upper left panel
# Protocol: as §3
# human PD-L1-Fc protein [18] = biological target: T2, human PD-L1-Fc protein; assay: ELISA, antibody titrated on coated human PD-L1-Fc, OD 450nm; upper left panel
# Protocol: as §2, with “To evaluate antigen binding activity, the humanized antibodies were subjected to ELISA test. Briefly,” for “Briefly,”, “with human PD-L1-Fc protein” for “with human, mouse, rat and cynomolgus PD-L1 proteins”, “with 200” for “with 150”, “of humanized” for “of chimeric”, “then incubated” for “then incubate”, “for 1 hour” for “for 30 mins”
# human PD-L1-Fc protein [19] = biological target: T2, human PD-L1-Fc protein; assay: receptor blocking ELISA: coated human PD-L1-Fc, blocked ligand biotin-labeled human PD-1-Fc (Bio-PD1), OD 450nm; upper left panel
# Protocol: as §3
# [20] = biological target: T3, human PD-L1 over-expressed on CHOK1 …; assay: flow cytometry (MFI) on PDL1-CHOK1 cells; upper right panel
# Protocol: as §4
# T3 sequence (Q9NZQ7 19-290): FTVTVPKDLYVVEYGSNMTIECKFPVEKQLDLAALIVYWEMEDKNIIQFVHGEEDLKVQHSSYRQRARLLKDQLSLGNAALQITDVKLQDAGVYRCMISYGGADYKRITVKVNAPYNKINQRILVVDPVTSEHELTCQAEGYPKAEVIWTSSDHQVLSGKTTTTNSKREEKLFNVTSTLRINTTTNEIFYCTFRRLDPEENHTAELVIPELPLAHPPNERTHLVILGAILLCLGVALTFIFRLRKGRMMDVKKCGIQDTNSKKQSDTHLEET
# T2 sequence (Q9NZQ7 19-238 limits assumed): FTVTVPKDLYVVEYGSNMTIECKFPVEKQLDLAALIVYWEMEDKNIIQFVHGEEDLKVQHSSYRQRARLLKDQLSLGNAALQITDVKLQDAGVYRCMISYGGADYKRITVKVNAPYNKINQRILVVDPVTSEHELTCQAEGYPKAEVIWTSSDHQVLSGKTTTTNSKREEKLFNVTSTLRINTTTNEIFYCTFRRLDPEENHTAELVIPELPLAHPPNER
# T1 sequence (Q9NZQ7 19-238 limits assumed): as above
# Sequence of PD-L1 on PD-L1 target cells (Homo sapiens (Human)) (Q9NZQ7 19-290 limits assumed): as the sequence (Q9NZQ7 19-290) above
# Sequence of human TGF-β protein (human) (P01137 279-390 limits assumed): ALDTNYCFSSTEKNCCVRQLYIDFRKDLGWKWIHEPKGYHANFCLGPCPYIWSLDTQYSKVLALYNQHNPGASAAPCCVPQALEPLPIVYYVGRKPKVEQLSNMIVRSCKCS
# Sequence of rat PD-L1 protein (D4AE25 entry or part of it limits assumed): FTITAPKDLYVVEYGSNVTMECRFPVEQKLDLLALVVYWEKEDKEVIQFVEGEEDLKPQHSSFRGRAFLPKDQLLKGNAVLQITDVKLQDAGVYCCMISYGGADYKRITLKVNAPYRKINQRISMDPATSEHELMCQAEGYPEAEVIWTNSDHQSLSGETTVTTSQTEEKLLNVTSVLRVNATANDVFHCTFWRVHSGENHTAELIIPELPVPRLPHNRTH
# Sequence of cynomolgus TGF-β protein (cynomolgus) (P09533 279-390): as the sequence (P01137 279-390 limits assumed) above
# Sequence of rat TGF-β protein (rat) (P17246 279-390): as the sequence (P01137 279-390 limits assumed) above, with A75S counted along it
# Sequence of mouse TGF-β protein (mouse) (P04202 279-390): as the sequence (P01137 279-390 limits assumed) above, with A75S counted along it
# Sequence of mouse PD-L1 protein (Q9EP73 19-239 limits assumed): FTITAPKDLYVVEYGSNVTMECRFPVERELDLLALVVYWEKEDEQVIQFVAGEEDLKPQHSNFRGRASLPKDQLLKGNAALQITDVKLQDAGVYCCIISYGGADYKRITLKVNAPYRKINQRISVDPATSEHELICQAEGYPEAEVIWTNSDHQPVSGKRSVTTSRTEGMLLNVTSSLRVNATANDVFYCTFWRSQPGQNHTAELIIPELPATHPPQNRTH
# Sequence of cynomolgus PD-L1 protein (G7PSE7 entry or part of it): as the sequence (Q9NZQ7 19-238 limits assumed) above, with A33T, A34S, S62N, R68Q, Q82R, F173L, T185A, T192I, H215L counted along it
molecule,measurement,setting,value
"MPDL3280A (Atezolizumab), Human IgG1 (N297A)-Fc (antibody)","EC50, NFAT-RE-mediated luminescence, PD1 effector cells co-cultured with PD-L1 target cells",[1],0.133 nM
M7824 (bintrafusp alfa),EC50,cynomolgus PD-L1 protein,0.0256 µg/mL
same,EC50,[2],0.0434 µg/mL
same,EC50,[3],0.0237 µg/mL
same,EC50,[4],0.0462 µg/mL
same,EC50,mouse PD-L1 protein,0.0106 µg/mL
same,EC50,rat TGF-β protein (rat),0.124 µg/mL
same,EC50,rat PD-L1 protein,0.0143 µg/mL
same,EC50,[5],0.0397 µg/mL
same,"EC50, NFAT-RE-mediated luminescence, PD1 effector cells co-cultured with PD-L1 target cells",[1],0.85 nM
same,"IC50, TGF-β SBE luciferase reporter assay in 293 cells",[6],0.0669 nM
B1,Kd,[7],0.0935 nM
same,koff,[7],5.31e-05 s⁻¹
same,kon,[7],568000 M⁻¹ s⁻¹
same,Kd,[8],0.107 nM
same,koff,[8],6.61e-05 s⁻¹
same,kon,[8],615000 M⁻¹ s⁻¹
same,IC50,human PD-L1-Fc protein [9],0.114 µg/mL
same,EC50,human PD-L1-Fc protein [10],7.05 ng/mL
same,IC50,human PD-L1-Fc protein [11],0.285 µg/mL
same,EC50,[12],0.1 nM
B2,Kd,[7],0.0983 nM
same,koff,[7],5.54e-05 s⁻¹
same,kon,[7],564000 M⁻¹ s⁻¹
same,IC50,human PD-L1-Fc protein [13],0.11 µg/mL
same,Kd,[8],0.0961 nM
same,koff,[8],6.73e-05 s⁻¹
same,kon,[8],700000 M⁻¹ s⁻¹
same,EC50,human PD-L1-Fc protein [10],8.78 ng/mL
same,EC50,[12],0.151 nM
same,IC50,human PD-L1-Fc protein [14],0.275 µg/mL
B3,Kd,[7],0.367 nM
same,koff,[7],0.0009 s⁻¹
same,kon,[7],2.45e+06 M⁻¹ s⁻¹
same,IC50,human PD-L1-Fc protein [9],0.0354 µg/mL
same,EC50,human PD-L1-Fc protein [10],11.7 ng/mL
same,EC50,[15],0.175 nM
same,IC50,human PD-L1-Fc protein [11],0.165 µg/mL
B4,Kd,[7],0.444 nM
same,koff,[7],0.000966 s⁻¹
same,kon,[7],2.18e+06 M⁻¹ s⁻¹
same,IC50,human PD-L1-Fc protein [13],0.029 µg/mL
same,EC50,human PD-L1-Fc protein [16],0.015 µg/mL
same,EC50,[15],0.188 nM
same,IC50,human PD-L1-Fc protein [14],0.163 µg/mL
B5,Kd,[7],0.48 nM
same,koff,[7],0.000593 s⁻¹
same,kon,[7],1.24e+06 M⁻¹ s⁻¹
same,IC50,human PD-L1-Fc protein [17],0.141 µg/mL
same,EC50,[15],0.291 nM
same,EC50,human PD-L1-Fc protein [18],0.00963 µg/mL
same,IC50,human PD-L1-Fc protein [19],0.0349 µg/mL
B6,Kd,[7],0.0371 nM
same,koff,[7],7.74e-05 s⁻¹
same,kon,[7],2.09e+06 M⁻¹ s⁻¹
same,Kd,[8],0.0347 nM
same,koff,[8],9.72e-05 s⁻¹
same,kon,[8],2.8e+06 M⁻¹ s⁻¹
same,IC50,human PD-L1-Fc protein [9],0.158 µg/mL
same,EC50,human PD-L1-Fc protein [18],0.0232 µg/mL
same,EC50,[20],0.167 nM
same,IC50,human PD-L1-Fc protein [11],0.495 µg/mL

# — patent US20230287125A1 (LEPU BIOPHARMA, published 2023)
